The target in assay [1] is T1, prohibitin (B cell receptor associated protein; prohibitin receptor protein complex) (mouse).
T1 sequence (P67778 2-272, looked up): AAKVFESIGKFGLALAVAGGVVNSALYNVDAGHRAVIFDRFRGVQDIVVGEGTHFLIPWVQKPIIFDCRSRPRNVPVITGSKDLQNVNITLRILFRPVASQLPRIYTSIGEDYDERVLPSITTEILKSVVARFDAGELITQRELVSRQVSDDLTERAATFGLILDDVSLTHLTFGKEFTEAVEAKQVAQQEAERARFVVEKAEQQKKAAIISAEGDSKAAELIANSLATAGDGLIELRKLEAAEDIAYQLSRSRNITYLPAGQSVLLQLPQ
Nature of the assay: immunoprecipitation from mouse adipose tissue extract with peptide-(KLAKLAK)2 conjugates, SDS-PAGE (data not shown).

In assay [2] the target is GST-β5cyto (GST fusion protein of the integrin β5 cytoplasmic domain) (UniProt P18084). Nature of the assay: phage binding to coated wells; β5 colonies divided by BSA colonies.
The target is the same in assay [3]. Description: phage binding to coated wells; β5 colonies divided by GST colonies.
Assay [4] shares this target. Description: phage binding to β5 cytoplasmic domain wells; colonies with Fyn-phosphorylated phage divided by colonies with unphosphorylated phage.
For assay [5], the target named is Aminopeptidase A (APA, EC 3.4.11.7) (UniProt Q07075 1-957, limits assumed). Nature of the assay: cell-based or functional assay.
In assay [6] the target is GST-β5cyto (GST fusion protein of the integrin β5 cytoplasmic domain) (UniProt P18084). Nature of the assay: phage binding to coated microtiter wells; colonies from β5-GST wells divided by colonies from BSA wells.
The target is the same in assay [7]. Nature of the assay: phage binding to coated microtiter wells; colonies from β5-GST wells divided by colonies from GST wells.
The target of assay [8] is GST-β3cyto (GST fusion protein of the integrin β3 cytoplasmic domain) (UniProt P05106). Description: phage binding to coated wells; β3 colonies divided by BSA colonies.
For assay [9] the target is unchanged. Nature of the assay: phage binding to coated wells; β3 colonies divided by GST colonies.
The target is the same in assay [10]. Description: phage binding to β3 cytoplasmic domain wells; colonies with Fyn-phosphorylated phage divided by colonies with unphosphorylated phage.
Assay [11] shares this target. Nature of the assay: phage binding to coated microtiter wells; colonies from β3-GST wells divided by colonies from BSA wells.
Assay [12] shares this target. Nature of the assay: phage binding to coated microtiter wells; colonies from β3-GST wells divided by colonies from GST wells.

Bridge positions count the residues as written; N and C are the ends. Square brackets hold non-standard residues; d marks the D form. Ends that are not written are not given here. pY = N[C@@H](Cc1ccc(OP(=O)(O)O)cc1)C(=O)O Bounds are passed on as bounds.

GST-β3cyto (GST fusion protein of the integrin β3 cytoplasmic domain), sequence (P05106 742-788): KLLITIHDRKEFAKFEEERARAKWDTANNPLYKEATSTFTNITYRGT
GST-β5cyto (GST fusion protein of the integrin β5 cytoplasmic domain), sequence (P18084 743-799): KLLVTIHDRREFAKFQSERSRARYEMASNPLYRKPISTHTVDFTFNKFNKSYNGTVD
Aminopeptidase A (APA, EC 3.4.11.7), sequence (Q07075 whole entry, the tested form may be a part): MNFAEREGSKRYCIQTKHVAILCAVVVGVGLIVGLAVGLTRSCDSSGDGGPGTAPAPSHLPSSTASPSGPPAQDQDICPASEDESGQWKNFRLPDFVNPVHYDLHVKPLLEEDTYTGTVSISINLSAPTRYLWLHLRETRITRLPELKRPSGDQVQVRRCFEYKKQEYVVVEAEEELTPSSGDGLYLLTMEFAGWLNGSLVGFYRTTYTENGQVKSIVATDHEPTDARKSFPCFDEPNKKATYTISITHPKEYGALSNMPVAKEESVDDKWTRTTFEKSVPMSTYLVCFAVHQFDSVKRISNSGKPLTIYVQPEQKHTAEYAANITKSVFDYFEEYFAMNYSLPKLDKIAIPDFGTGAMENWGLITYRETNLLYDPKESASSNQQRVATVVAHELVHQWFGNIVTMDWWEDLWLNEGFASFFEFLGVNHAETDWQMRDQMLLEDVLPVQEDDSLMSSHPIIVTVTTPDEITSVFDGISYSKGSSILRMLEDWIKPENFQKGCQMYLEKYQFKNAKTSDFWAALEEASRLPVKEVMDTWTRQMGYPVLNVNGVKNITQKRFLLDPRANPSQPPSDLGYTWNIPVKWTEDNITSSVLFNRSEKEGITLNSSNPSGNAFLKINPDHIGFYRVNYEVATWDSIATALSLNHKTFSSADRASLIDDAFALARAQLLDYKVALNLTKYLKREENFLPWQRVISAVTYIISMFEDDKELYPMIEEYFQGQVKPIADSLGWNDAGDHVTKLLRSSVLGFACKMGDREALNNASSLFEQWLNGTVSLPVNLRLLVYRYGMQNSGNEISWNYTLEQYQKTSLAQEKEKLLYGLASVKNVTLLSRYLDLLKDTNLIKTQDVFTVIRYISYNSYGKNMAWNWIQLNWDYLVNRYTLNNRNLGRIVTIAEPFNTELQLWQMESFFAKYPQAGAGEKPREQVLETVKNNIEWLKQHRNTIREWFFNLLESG

B1: … (SEQ ID NO:22) conjugated to (KLAKLAK)2 (SEQ ID NO:1) (peptide)
peptide: CKGGRAKDCGG[dK][dL][dA][dK][dL][dA][dK][dK][dL][dA][dK][dL][dA][dK]
modifications: disulfide 1-9
On to B1, for which the fold enrichment in the … precipitated fraction compared to the CARAC precipitated fraction in [1] was > 10 >fold.

B2: Fyn-phosphorylated phage displaying … (SEQ ID NO:53) (peptide)
peptide: TMLR[pY]FMFP
modifications: also: displayed on phage pIII
Take B2: in [2], the β3 or β5/BSA was 3.8. Further, in [3], the β3 or β5/GST came to 2.3. Further, the Phos/Unphos in [4] stood at 4.2.

B3: soluble CPRECESIC (SEQ ID NO:56) peptide (peptide)
peptide: CPRECESIC
modifications: disulfide (positions not given here); not fully specified; also: mix of six MS peaks: possibly different disulfide positions and dimers
For the molecule B3, in assay [5], the “IC50 for inhibition of APA enzyme activity (α-glutamyl-p-nitroanilide, SK-RC-49/APA cells)” value worked out at 800 µM.

B4: phage displaying … (SEQ ID NO:42) (peptide)
peptide: CKLWQEDGY
modifications: also: displayed on phage pIII
Regarding B4, the β5/BSA Ratio in assay [6] was found to be 665. For the same molecule, in assay [7], the β5/GST Ratio is 1.8.

B5: Fyn-phosphorylated phage displaying … (SEQ ID NO:50) (peptide)
peptide: RAIL[pY]RLAN
modifications: also: displayed on phage pIII
In the case of B5, in [8], the β3 or β5/BSA amounted to 20. The β3 or β5/GST in [9] was determined as 1.3. The Phos/Unphos in [10] amounted to 2.8.

B6: Fyn-phosphorylated phage displaying … (SEQ ID NO:51) (peptide)
peptide: MLLG[pY]RFEK
modifications: also: displayed on phage pIII
Consider B6, for which the β3 or β5/BSA in [8] is 2.7. The molecule further gave a β3 or β5/GST in [9] of 3.5. In addition, the Phos/Unphos in [10] amounted to 2.5.

B7: Fyn-phosphorylated phage displaying … (SEQ ID NO:49) (peptide)
peptide: GGGS[pY]RHVE
modifications: also: displayed on phage pIII
B7 returned a β3 or β5/BSA in assay [8] of 5.3. This molecule also came in with a β3 or β5/GST in [9] of 1.5. The molecule also yielded a Phos/Unphos in [10] of 13.2.

B8: Fyn-phosphorylated phage displaying … (SEQ ID NO:54) (peptide)
peptide: TLRK[pY]FHSS
modifications: also: displayed on phage pIII
B8 had a β3 or β5/BSA in [2] of 15.2. The same molecule displayed a β3 or β5/GST in [3] of 3.8. In assay [4], this molecule displayed a Phos/Unphos of 3.8.

B9: phage displaying … (SEQ ID NO:35) (peptide)
peptide: AGWLYMSWK
Take B9: the β3/BSA Ratio in assay [11] is 2.4. In addition, the β3/GST Ratio in [12] is 1.8.

B10: Fyn-phosphorylated phage displaying … (SEQ ID NO:52) (peptide)
peptide: TMLR[pY]TVRL
modifications: also: displayed on phage pIII
In [2], B10 registered a β3 or β5/BSA of 2.2. In assay [3], this molecule gave a β3 or β5/GST of 3.4. In assay [4], this molecule yielded a Phos/Unphos of 14.3.

The values are drawn from patent US20060094672A1 (University of Texas, published 2006).
